Measurements published in paper PMC10191332.

Target: recombinant His-gH/gL (HCMV), purified (HCMV) (UniProt P12824)
Test: BLI

EphA2 extracellular domain (27-534), purified (from UniProt P29317 27-534) (domain or fragment)
Kd: 36.4 nM
